{"source": "paper PMC6557524", "origin": "cited, not measured here", "target": "CCR2 (UniProt P41597)", "sequence (P41597 whole entry)": "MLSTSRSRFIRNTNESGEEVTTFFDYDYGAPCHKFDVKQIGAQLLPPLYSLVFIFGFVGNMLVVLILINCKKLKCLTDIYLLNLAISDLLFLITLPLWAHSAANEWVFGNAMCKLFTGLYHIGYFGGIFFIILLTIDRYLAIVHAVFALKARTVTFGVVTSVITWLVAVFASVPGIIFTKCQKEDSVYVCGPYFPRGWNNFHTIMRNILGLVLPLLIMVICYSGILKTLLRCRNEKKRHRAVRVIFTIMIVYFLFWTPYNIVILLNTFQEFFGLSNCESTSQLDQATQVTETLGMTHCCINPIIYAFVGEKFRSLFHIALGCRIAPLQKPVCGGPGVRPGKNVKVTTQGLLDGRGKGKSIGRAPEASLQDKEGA", "note": "pKd: −log10 of the molar value.", "data": [{"substance": "CCL2 (from UniProt P13500)", "values": [{"measurement": "pKd", "result": 8.68}]}]}
